From a protein production outcome set (Wang et al. 2014)

Test: label from the status in PepcDB records

Sequence | protein production
MNKTLIINAHPKVDDTSSVSIKVFKHFLESYKELISNNETIEQINLYDDVVPMIDKTVLSAWEKQGNGQELTREEQKVTERMSEILQQFKSANTYVIVLPLHNFNIPSKLKDYMDNIMIARETFKYTETGSVGLLKDGRRMLVIQASGGIYTNDDWYTDVEYSHKYLKAMFNFLGIEDYQIVRAQGTAVLDPTEVLQNAYKEVEEAASRLANKYIFSLEE | not failed
MNKVLINDTTLRDGEQAAGVVFTLEEKVAIAKFLDTIGVPELEVGIPAMGEEEMRAICAISNLGLKANLLAWNRAVISDIKASVACGMERVHIAIPVSGIQIAAKFHGQWRVSLQRLKDCISFAVDQGLWVAVGGEDSSRADENFLLDVALYAQEWGASRFRFCDTVGVLDPFTTYGKVKLLVSALTIPVEVHTHNDFGMATANALAGIKAGASSVNTTVIGLGERAGNAALEEVVMAIKRIYGVDMGIDTPRLLELSQLVAAASGANVPPWKAIVGENTFAHESGIHAHGVLQNPDTYEPFAPEEVGWERRLVVGKHSGRHSVSNLLEQHGIFLNPEETQSVLDAVRQQSIKKKRSLTTEELLNLVKEQRYSHAAR | failed
MNLDALVSWSRAQFALTAMYHWLFVPLTLGLGVIMAIVETIYYRNGKPEWKRYAQFWQKLFGINFAIGVATGIILEFEFGTNWSNYSLFVGDIFGAPLAIEGILAFFMEATFIAVMFFGWNKVSKGFHLSATWLTIIGASLSAVWILIANAWMQEPVGMTFNPDTMRNEMTDFWALVFSSTAINKFWHTISSCWTLGSVFALGVCGIYLLRKDDKHKDFALKNIKIIAPFGLAASLITAFTGDTSAYNVAQKQPMKLAAMEALYDSGQTDKDGLTADGKGLPLSLFGILNPAKETPQDDKEAFLFNVSVPRVLSVLGTRNPSGYVPGINNILEGGYVKADGTTAIPVDSMMQRGRRAIMALNDYSKAKQAGDMEAALQHKSVIDENFPYFGYSYIQHKNDIVPPVGLTYYSFRIMVGLGMLFILLFLMAWLLSFKPEKFSKMRWFHMIAIVCMPLAWVASQSGWIVAEVGRQPWTIQDLLPVQAAVSKLEAGSVIITFFVFLVLFSALLVAELNIMRKAIKKGPETE | failed
MNLFRKCLLILGLASPLYLGLGQTSAHAEAVPPLAPTTCQATNLPQPSTAAIRELTPTGTLRVAINTGNYVLATEADDFGPFGISVDIAHLLAKGLGVPSEFTVVQAAAVSFERVSKNLSDIGFFGVDPWRAESVDYTNPYIQIEGAYIVRQDSPILTLADVDRAGIQIVVGKNSVYNLFLDRNIHHAHLVQAPTSPEVTGFMLAHKFPVGAGIRNQLVADMKRYGGLRILSTSFMIIHQAMATGKGRPQGLSYLQSFISELKKSGCIQELITKYAVDDAVVSP | failed
MNLFRKISEKLKSYEDWVTEANYYLDEGIYDKAVECYLKALEKKNTNPIDWFNLAYALYHLEKYDSALEAINEALKISPSNIYFAYLKGLIHYKRGEIILAYKYLKKASEKIKNEELFEILGDISVKYGRYEEALKYYLKSYKMANSKNLNALFKAGKIYLLFGDIDKAYDAFNEILQQNPSHECKKIVECMENVVNAINSYEDLNNGLTMIKNKDYIGALKIFNKVLQIDENSDISYYYKSVIAEIFEEYKKALEYIDKSISIFNRSLYYAKKGDILYKLGDEEGAIEAYNKAIKLNSQNPYAYFGLAILYYRKGELEKSSNFFDKVLETYLEELSEEDISALNLYSLIGKAETTGIPKYYHEAMKYVDNLINLENSSRWWYVKGYIYYKLGNYKDAYESFMNALRVNPKDISTLKSLAIVLEKSGKIDEAITTYTKILKIVNSLQFTCEIDNILEKLRSRKPTNLEIPSVLFDIPVMYHKPNITCFYASNLWKYMANNNPIGAYIYLSFIESYISLDEISQMVNDIKSKLSLEMYRYCELIDDYKSDESVLMQIKELLQKLGCML | failed
MNLFRSERGALALLLGVSALILLLGLGSRELWGPETRWANIALQMLQSGDYFDPYLKGAPYYDKPLPSYWLITASAWLMGGLGHWSLRLSSVIAAWLSIWLVYLIGERLFHKGTGLIAGWMLATTFYFAFWARVATADVLTVCGVLAAVWWYWRGPEDTRLGRYTVFFLILAATSLLKGLIGFVLPGLILLPHLLSQGRWKRHLNLRLVLALSIAALFYMVPFVLSHLYGAPSYGESGLSLVFRENVVRFFNPFDHVGPIYTYLIYLPAYTLPWAPCWILGLWLAARHWRQLQPNERWLVWALGLLFLFFTASGSRRSYYVLPLVPFAQLLGAWWLNRRLQLRQAVGKPVSRGWPLGFSCAALVMLLVLGVAYPWSNSGGGVMQFSADTRAAASRIAPWNQWRMVMVEIDNKLPMYLQNQGAPFYYVAETADFPRNGSSADFMAWLDKTSGQHWDPQRTLIFVQQKHDEPLMLGYLGEDHQLVRTTPTNGERLAKKPAQGSVAFIPRIPGN | failed
MNLFYRCRFFLFNNKVKNRGRGNKVVTNSASAKACTILFNGNNNTVILGESASLRGCLIIMSGDDHVLEIGAHTSIYKSNIAFEDHHCLISIGDYTTIQENGGISAVEPYSKIIIGKRCMFSVDVDIRNTDSHSIIKLDTGERINPGKNIFIDDKVWLGAYVQVLKGVSIGNNSIVGIRSLVTKDIPSHALAVGVPAKVIKTNVDWREERI | failed
MNLHTKTWVQRLPVPIDVAWDFFSQPGNLARITPPEMMLKAEGGNAGTAIYEGMKLNFVLYPFMMIPVRWTTEIMKVSKPDFFEDRQLSGPYEQWYHRHLFRDIEGGTEMTDIVEYALPFDLFGEVVEALIVGPRLDEVFEYRRCRVAEILGEMASETRLEHHHHHH | not failed
MNLIINDKTASSSVGQTIGKAARLNHAHVGYVCGGHGLCQACYITVQEGADCLAPLTDVEKAFLSPRQIAAGGRMACQATIAKEGTVKVLSRPEEVRRMVFSNPFQLIGYAADMGKDTAQQIVPGVQNLIGRIQRGEMGGKDALGDMIESIQGAAGLVVEAIQQGPMALPIPFKEQIADLISKLPLPQIQLPSISLPQLPSISFPQLPFSLPKLPFSLPFLPQQPQATASLEKVTITVQPPAKD | failed
MNLILTILSALGSFIVTNVDDIFVLMLLFSQARSQAKTGNSGIVSMESKGNRIYPRDIVIGQYLGFALLVLISLLATFGVTLIPDQWVGLLGLIPIYLGVKLFIKGEDEDEGNILSNLNKFNKFYLSVAFITFANGGDNIGIYVPFFSTLNNNQLIITVVTFFIMVAVWCLIGYRLARFRYVSETLEKYGRWIIPIVFIGLGIYIMVENETFRAILSLVN | failed
MNLLRHAVAGLCLVASAGCSGQDVMVRKQSEMETRLEHLHQASTTSGVRLAELSAEVTALRERLAAQGAELEQIKAGQRELQANITERLAQVAPAAGTPSRIEVVSRDGAPREKDGPPDAYLKAFGLYSANNFAGAVEAFQAFLAEHPDSEYAGNALYWIGECHYSRSDLPRALDAFRLVAERYPASTKVPDALLKSGYTLYAMKEPERAREILESLAAKYPRSPAAAKARERLAVATPKKQ | failed
MNLLTNEKTIKVFSSLIYTSLIISLIAMIFDVKLASKIFNTIGIISAILLFINKREIKKESMLIPLSILFLCVTNLIWEQLYKNSGSEIIGLYHSYHNVMKILFLGSSLTLFVMTFSSKHPLTKNALNIIYTIPFFLVLYYLLSEPEVRFSISDKIATSSAYMISFIGILTSQVILLKTEKRNLFFYFINHIIFFTIIVLSGTRAAILAYPLLSAIVLIPAILKDKKINLKLIILYIMVNIVCLVACQKTIMSRSENLISDINMYNQSNSESSVGARIAMYRSGLTSFIHAPMGQSAESRQLDIQKQAEQNPSLSGAALLTGIHLHNELIEAISLKGIIGGMALLLLYASLFYFSSFILKDYALTSLTLSLVIYGLSDVIFYGKNATTVWIVTYCLSILLVKRNRGVQ | failed
MNLLVIGGHERMEKDYMVMAKKKGYKTKVYTTMSSKLNNSIGRPDAVVILTSTVSHKMSRTVESQAKKQDILIVRHKNSSKVAFNECLDMVDECLGNCSKCKLKDKQKQKNILEHHHHHH | failed
MNLPMTMSLQTVSFEEFITTIAAALGCGLLVGLERERSKLKHEYKTFAGFRSFAISSLLGAICFLFGTAIGIVGALLIGAISIVSLKNQPNDPGVTTELAFIMTYFIGALCIWNISLAAGLAVIMTIILLAKQSMHGIASQWITESELRDGIFLLALLLIALPLVPNKPFWGPVLNPHVILKLLTLILFVQALAHIAKRLLSSKNALLLSSLASGFVSSTATIASLGLEVRSGRANAKTNAGAALMSCVSTLVQTLIIVVGISLAWFKLIIFPTLIALAFLAVWAFILLRKAEPSTTSPELDSRMFSLKEAVIIAGTLTLIQAGVYGLSLYLGNAGLIAGTLLASLFEIHAAIAAVIVQGEPNNSQTSLLIAFMGGFAVHAIAKSINSAISGGLHYALAFIPAQILHMTIFIGLLWMNIHWF | failed
